Assay results reported in patent US20240309103A1 (Regeneron, published 2024).
Changes are numbered by the printed parent chain.

T1: human NPR1 on HEK293/hNPR1.myc.DDK cells (0 hANP) (human, UniProt P16066 33-1061)
T1 sequence: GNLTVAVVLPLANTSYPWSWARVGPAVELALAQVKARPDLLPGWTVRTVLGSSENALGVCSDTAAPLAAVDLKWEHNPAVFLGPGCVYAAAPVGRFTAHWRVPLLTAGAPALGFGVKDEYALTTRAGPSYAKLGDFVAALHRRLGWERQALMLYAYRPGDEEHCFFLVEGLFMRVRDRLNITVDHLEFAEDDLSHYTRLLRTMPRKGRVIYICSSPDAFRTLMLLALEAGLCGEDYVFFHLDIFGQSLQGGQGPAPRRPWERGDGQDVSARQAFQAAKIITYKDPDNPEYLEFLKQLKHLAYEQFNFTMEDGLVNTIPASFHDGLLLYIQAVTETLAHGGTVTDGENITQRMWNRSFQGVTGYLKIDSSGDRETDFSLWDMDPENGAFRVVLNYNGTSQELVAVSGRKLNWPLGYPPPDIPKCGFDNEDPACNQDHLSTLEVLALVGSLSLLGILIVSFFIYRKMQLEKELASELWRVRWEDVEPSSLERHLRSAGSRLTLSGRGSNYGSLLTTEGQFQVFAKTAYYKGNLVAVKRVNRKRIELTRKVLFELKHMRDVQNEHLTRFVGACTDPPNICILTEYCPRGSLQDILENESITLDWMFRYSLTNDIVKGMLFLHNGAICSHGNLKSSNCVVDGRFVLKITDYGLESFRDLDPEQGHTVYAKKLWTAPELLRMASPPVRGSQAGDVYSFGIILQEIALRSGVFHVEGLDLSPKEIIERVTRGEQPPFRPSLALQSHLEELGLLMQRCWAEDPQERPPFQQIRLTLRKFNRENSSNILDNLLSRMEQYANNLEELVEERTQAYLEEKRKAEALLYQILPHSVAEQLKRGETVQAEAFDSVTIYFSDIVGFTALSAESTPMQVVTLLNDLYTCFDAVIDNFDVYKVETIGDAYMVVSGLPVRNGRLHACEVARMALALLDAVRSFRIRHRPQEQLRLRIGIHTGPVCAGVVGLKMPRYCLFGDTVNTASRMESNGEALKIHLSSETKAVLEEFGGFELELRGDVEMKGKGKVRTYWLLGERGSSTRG

T2: human NPR1 on HEK293/hNPR1.myc.DDK cells with 10 nM hANP (NPR1-ANP complex) (human, UniProt P01160 124-151)
T2 construct: also called NPR1-ANP Complex on the Cell Surface
T2 sequence: T1 sequence
T2 sequence (peptide): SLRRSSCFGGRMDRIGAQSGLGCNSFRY

T3: mNPR1-mFc (mouse)
T3 construct: also called mouse NPR1 extracellular domain expressed with a C-terminal mouse IgG2a
T3 chain: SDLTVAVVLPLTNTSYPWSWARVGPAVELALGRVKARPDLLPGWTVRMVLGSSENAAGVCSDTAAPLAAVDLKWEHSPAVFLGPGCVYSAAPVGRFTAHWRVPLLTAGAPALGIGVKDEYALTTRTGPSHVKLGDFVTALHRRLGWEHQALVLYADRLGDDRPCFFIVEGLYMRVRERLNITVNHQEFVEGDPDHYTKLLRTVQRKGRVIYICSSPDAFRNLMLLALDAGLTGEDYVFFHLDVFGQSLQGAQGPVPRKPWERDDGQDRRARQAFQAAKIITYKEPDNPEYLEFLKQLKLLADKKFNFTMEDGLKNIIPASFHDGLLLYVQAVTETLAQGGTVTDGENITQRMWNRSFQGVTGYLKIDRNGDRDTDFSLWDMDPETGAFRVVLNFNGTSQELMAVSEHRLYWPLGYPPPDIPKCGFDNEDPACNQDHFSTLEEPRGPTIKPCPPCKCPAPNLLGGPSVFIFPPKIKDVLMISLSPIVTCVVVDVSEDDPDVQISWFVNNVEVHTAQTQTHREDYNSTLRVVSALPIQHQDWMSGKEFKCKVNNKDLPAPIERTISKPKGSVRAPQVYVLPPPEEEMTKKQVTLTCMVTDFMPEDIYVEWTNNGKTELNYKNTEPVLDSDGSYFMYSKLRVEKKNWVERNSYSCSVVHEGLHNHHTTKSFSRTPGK

B1: mAb25497 (antibody, human IgG4, V domains shown)
VH: QVQLVQSGAEVKEPGASVKVSCKASGYTFTDYYIHWVRQAPGQGLEWMGWINLNSGGKNHAQKFQGRVTVTSDTSINTAYIELGRLRGDDTAVYYCSRGGGSHYYYYYHGMDVWGQGTTVTVSS
VL: DIQMTQSPSSLSASVGDRITITCRASHSIDSYLNWYQQKPGKAPKLLIYPASTLQSGVPSRFSGSGSGTDFTLTISSLQPEDSAIYYCQQSYSTPLTFGGGTKVEIK
B2: mAb25479 (antibody, human IgG4, V domains shown)
VH: QVQLVQSGAEVKKPGASVKVSCKASGYTFTGYYIHWVRQAPGQGLEWMGWINPNSIGTNYAQKFQGRVTLTRDTSISTAYMELSSLRSDDTAVYYCARGGSSSYYYYYYGMDVWGQGTTVTVSS
VL: B1 VL with I19V, H27Q, S31N, P50V, T53S, S83F, I85T
B3: mAb25491 (antibody, human IgG4, V domains shown)
VH: QVQLVQSGAEVMKPGASVKVSCKASGYTFTGYYIHWVRQAPGQGLEWMGWITPNSGATNYAQKFQGRVTLTRDTSISTAYMELTRLKSDDTAVYYCARGGQLEFFYYYYGMDVWGQGTTVTVSS
VL: DIQMTQSPSSLSASAGDRVTITCRASQSIDSYLNWYQQKPGKAPKLLISATSGFQSGVPSRFSGSGSGTDFTLTISSLQPEDFGTYYCQQSYTTPITFGQGTRLEIK
B4: mAb25498 (antibody, human IgG4, V domains shown)
VH: QVQLVESGGGVVQPGRSLRLSCVASGFTFSSYGMVWVRQTPGKGLEWVAVIWHDGTNNYYADSVKGRFTISRDNSKNTLYLQMNSLRAEDTAVYYCAREPWLVRGYYYYAMDVWGQGTTVTVSS
VL: not shown
B5: mAb22035 (antibody, human IgG4, V domains shown)
VH: EVQLVESGGGLVQPGRSLRLSCAASGFTFDDYAMHWVRQAPGKGLEWVSGISWNSGTIGYADSVKGRFTMSRDNAKNSLYLQMNSLRPEDTALYYCAKDMGVSLALWGAFDIWGQGTMVTVSS
VL: DIQMTQSPSSLSASVGDKVTITCRASQNIRTYLNWYQQKPGKAPKVLISTASSLQSGVPSRFSGSGSGTDFTLTISSLQPEDFAVFYCQQSFGIPRTFGQGTKVEIK

Biological target: T1, human NPR1 on HEK293/hNPR1.myc.DDK …
Assay: cell-based or functional assay

Binder	% Activation (vs ANP max), Expt 1	% Activation (vs. ANP max), Expt II	EC50 (nM), calcium flux, Expt 1	EC50 (nM), calcium flux, Expt II
B1	71.1%	103%	72.6 nM	56.4 nM
B2	66.7%	82.8%	174 nM	102 nM
B3	74.6%	104%	102 nM	43.4 nM
B4	67.7%	–	335 nM	–
B5	73.1%	56.8%	384 nM	> 200 nM

Biological target: T1, human NPR1 on HEK293/hNPR1.myc.DDK …
Assay: ECL cell binding (MSD), 0 hANP
Protocol: (§1) All cells were washed once with 1×PBS with Ca²⁺/Mg²⁺ and counted with a Cellometer™ Auto T4 cell counter (Nexcelom Bioscience). Approximately 2.0×10⁴ HEK293/hNPR1.myc.DDK or HEK293 cells were seeded separately onto 96-well carbon electrode plates (MULTI-ARRAY high bind plate, Meso Scale Discovery (MSD, Rockville, MD)) and incubated for 1 hour (h) at 37° C. Nonspecific binding sites were blocked by 2% BSA (w/v) in 1×PBS with Ca²⁺/Mg²⁺for 1 h at room temperature (RT). HEK293/hNPR1.myc. […] The plate-bound antibodies were detected with SULFO-TAG™-conjugated goat polyclonal anti-human IgG antibody specific for heavy and light chains (Jackson Immunoresearch, West Grove, PA) for 1 h, RT.
(§2) After washes, plates were developed with Read Buffer (MSD, Rockville, MD) according to manufacturer's recommended procedure and luminescent signals were recorded with a SECTOR Imager 600 (MSD, Rockville, MD). Luminescence intensity, measured in relative light units (RLU), was recorded to indicate the binding intensity of each antibody at the range of concentrations.
(§3) In addition, direct binding signals (RLU) were analyzed as a function of the antibody concentration and data were fitted with a sigmoidal (four-parameter logistic) dose-response model using R statistical package (open source).

Binder	EC50	Ratio at 3.7 nM Ab concentration of Cell Binding Signal (RLU) to HEK293/hNPR1.myc.DKK relative to parental HEK293
B1	1.5 nM	50 ratio
B2	1.7 nM	30 ratio
B3	1.6 nM	58 ratio
B4	4.6 nM	41 ratio
B5	2.3 nM	151 ratio

Biological target: T2, human NPR1 on HEK293/hNPR1.myc.DDK …
Assay: ECL cell binding (MSD), +10 nM hANP
Protocol: as §1, §2, §3

Binder	EC50	Ratio at 3.7 nM Ab concentration of Cell Binding Signal (RLU) to HEK293/hNPR1.myc.DKK relative to parental HEK293
B1	0.87 nM	87 ratio
B2	1.2 nM	51 ratio
B3	1 nM	78 ratio
B4	1.8 nM	49 ratio
B5	0.89 nM	220 ratio

Biological target: T4, mfNPR1-mFc:hBNP complex (monkey; human, UniProt P16860 103-134)
T4 construct: Receptor-Fc pre-complexed with 10-fold hBNP
Assay: SPR Biacore, mAb captured by anti-human Fc, 37C
Protocol: (§4) Equilibrium dissociation constant (KD) for different NPR1 reagents binding to purified anti-NPR1 monoclonal antibodies (mAbs) were determined using a real-time surface plasmon resonance based Biacore 4000 biosensor. All binding studies were performed in 10 mM HEPES, 150 mM NaCl, 3 mM EDTA, and 0.05% v/v Surfactant Tween-20, pH 7.4 (HBS-ET) running buffer at 25° C. and 37° C. The Biacore CM5 sensor chip surface was first derivatized by amine coupling with either mouse anti-human Fc specific mAb (GE Healthcare, #BR100839) or goat anti-human Fcy specific polyclonal antibody (Jackson ImmunoResearch Laboratories, #BR-1008-39) to capture anti-NPR1 mAbs.

Binder	100 nM Ag Bound (RU)	Kd	koff	kon	t½
B1	100 RU	2.9 nM	0.000166 s⁻¹	57400 M⁻¹ s⁻¹	1.16 h
B2	135 RU	5.53 nM	0.000293 s⁻¹	53000 M⁻¹ s⁻¹	0.657 h
B3	146 RU	1.6 nM	0.00011 s⁻¹	68900 M⁻¹ s⁻¹	1.75 h
B4	113 RU	8.91 nM	0.000464 s⁻¹	52100 M⁻¹ s⁻¹	0.415 h
B5	286 RU	0.368 nM	9.48e-05 s⁻¹	258000 M⁻¹ s⁻¹	2.03 h

Biological target: T3, mNPR1-mFc
Assay: SPR Biacore, mAb captured by anti-human Fc, 37C
Protocol: as §4

Binder	100 nM Ag Bound (RU)	binding result
B1	1 RU	no binding (tested: 100 nM)
B2	2 RU	–
B3	1 RU	no binding (tested: 100 nM)
B4	0 RU	no binding (tested: 100 nM)
B5	0 RU	–

Biological target: T3, mNPR1-mFc
Assay: SPR Biacore, mAb captured by anti-human Fc, 25C
Protocol: as §4

Binder	100 nM Ag Bound (RU)
B1	1 RU
B2	-1 RU
B3	1 RU
B4	0 RU
B5	-1 RU
